The series is described as follows: soluble on expression in E. coli; label from the status in PepcDB or PDB records.
Take “MKEPLDLSKYSVRTDLAVEAHQMLQERQEEQQQGIQGVIVKEREEEGIIITKVTIDEVASESMGKKPGNYLTLEVQGIRQQDTELQQKVERIFAKEFSYFLEEVGVTKEASCLIVGLGNWNVTPDALGPIVVENVLVTRHLFQLQPESVEEGFRPVSAIRPGVMGITGIETSDVIYGIIEKTKPDFVIAIDALAARSIERVNSTIQISDTGIHPGSGVGNKRKELSKETLGIPVIAIGVPTVVDAVSITSDTIDFILKHFGREMKEGNKPSRSLLPAGFTFGEKKKLTEEDMPDEKSRNMFLGAVGTLEDEEKRKLIYEVLSPLGHNLMVTPKEVDAFIEDMANVIASGLNAALHHQIDQDNTGAYTH”: the “soluble on expression in E. coli” value is listed as “not soluble”.

“MQDWWEADNRLADWLSMILIQRTIEKNAKQALANLGPHLDLESLIGMDMATLEEYIYPAGFYKQKSIYIKALIKWFHGHGASLDKFQTYSTEDLRKELLGIKGVGEETADAMLLYIFERNVFIADLEHHHHHH”: the “soluble on expression in E. coli” value is recorded as “not soluble”.

For “MISAKEQAKKGQIIYRYILLKIQSFKWPAGTRIFSERQLEIRFASSRSLIRTILNTLLGKDLIRHTKGNAGYFVAKNAGFSFFHKTQDNKLPKWAKLSTLMKNHLREVDRDVFSSIDSGVDFGNFKGLEAKLFDENKKNFLNLSFFGKDDVLQIFSEQNLQEQFFKDFAYNGIVVERKSSLICVDDETKNLLIYDLFYDDNNKFIVAMRSEYLNPRIKIINA”, the “soluble on expression in E. coli” value was “soluble”.

In the case of “MGSDKIHHHHHHMAVSSNGGAIKAVIYDCDGVMFDSFEANLAFYQRIMEMMGRPRLSRDNEEQMRILHTYANREVLAHFFPSPGDWEEAVRCAGAIDYRELVPLMIMEEGFREALDTLKGRVGLGVCTNRSTSMDMVLRLFSLDSYFSIVMTASRVTNPKPHPEPLLKVLEHFGIGPREALFVGDSEVDRLSAEAAGVPFVAYKAPLPAAYRMEHHREIIDLLG”, the “soluble on expression in E. coli” value was “not soluble”.

For “RMASVWQRLGFYASLLKRQLNGGPDVIKWERRVIPGCTRSIYSATGKWTKEYTLQTRKDVEKWWHQRIKEQASKISEADKSKPKFYVLSMFPYPSGKLHMGHVRVYTISDTIARFQKMRGMQVINPMGWDAFGLPAENAAVERNLHPQSWTQSNIKHMRKQLDRLGLCFSWDREITTCLPDYYKWTQYLFIKLYEAGLAYQKEALVNWDPVDQTVLANEQVDEHGCSWRSGAKVEQKYLRQWFIKTTAYAKAMQDALADLPEWYGIKGMQAHWIGDCVGCHLDFTLKVHGQATGEKLTAYTATPEAIYGTSHVAISPSHRLLHGHSSLKEALRMALVPGKDCLTPVMAVNMLTQQEVPVVILAKADLEGSLDSKIGIPSTSSEDTILAQTLGLAYSEVIETLPDGTERLSSSAEFTGMTRQDAFLALTQKARGKRVGGDVTSDKLKDWLISRQRYWGTPIPIVHCPVCGPTPVPLEDLPVTLPNIASFTGKGGPPLAMASEWVNCSCPRCKGAAKRETDTMDTFVDSAWYYFRYTDPHNPHSPFNTAVADYWMPVDLYIGGKEHAVMHLFYARFFSHFCHDQKMVKHREPFHKLLAQGLIKGQTFRLPSGQYLQREEVDLTGSVPVHAKTKEKLEVTWEKMSKSKHNGVDPEEVVEQYGIDTIRLYILFAAPPEKDILWDVKTDALPGVLRWQQRLWTLTTRFIEARASGKSPQPQLLSNKEKAEARKLWEYKNSVISQVTTHFTEDFSLNSAISQLMGLSNALSQASQSVILHSPEFEDALCALMVMAAPLAPHVTSEIWAGLALVPRKLCAHYTWDASVLLQAWPAVDPEFLQQPEVVQMAVLINNKACGKIPVPQQVARDQDKVHEFVLQSELGVRLLQGRSIKKSFLSPRTALINFLVQD”, the “soluble on expression in E. coli” value was “soluble”.

On to “MSLRRIGITQRLLETREYIETREALDVRWGELFYHLSWGMIPLSYAVPLEVYIKEFALEGVILSGGNDLNDFVSSPLNKKRDAYEKEILRYAKQYAFPLLGVCRGAQMIAYEGGSLLEFCEGHVGRHEIFWEEGEGEIIGSEHQLAIKELGAGLIPLARSCEGLVEAFRGEEAPLFGMMWHPERQDKRSAGTLKMVELFSQALQKREGHHHHHH”, for which the “soluble on expression in E. coli” value was “soluble”.

Consider “MFVPLAMLAGMFSYYETFHETEALQDDLLRQAALYVAPDSKPETLPEGDGDTRIFVQMPQQEDPVVSLPAHLADGLHTLQADGDDDYYRVYIRTTEQGRIAVMQENEYREDLAADAARQSVLPLLAALPLMILLTVWITHKAMRPVRKLSQSLEQRRINDLSALSVDNIPSEIRGFVTAINLLLKRADEDIRHRQRFVADAAHELRTPMTALSLQAERLNNMSLPPDAARQPAVLQQSIRRNKHLLEQLLALARSQSDETPLTKTTFGLQSRFRQVLQELMPLALEKRQDIGVAVGGDVEVSADETEIYTLIKTFADNAVRYTPPEGRIDLGFTDEGKYLAVWVEDNGNGIPESERARVLDPFYRILGTEQQGTGLGLSIADTLAKKYGGHLELTDSRRFGHGLLIRALLDKETLK”, for which the “soluble on expression in E. coli” value is recorded as “not soluble”.

Regarding “MFCTSEAAVDMDSGRGDIRRLKDGEILKYTSGIFSSKWKKMYAVLFSDSRLVWFENRGDRKPKGSVLLKDVIPYICVGLMTDRMPVKRPNVPEGNSVHHLVGIGMNPKADPCHWILFSSDSDIESWFTEITKTLPKPANPPPNAPQQGPGAQPPQQQNNGGYVPPTVYPSAPPPVQPGYNPRPASGQSYPSGPQVPPAYGQYPQPGYPQPAGVPTSSHTTVIVRDGGYGGGGYGGYGGGGGGFGSTGLGFGSGILAGSLLGYGLGSMWGGHHSYGGWGGGYGGGGYGMAGGYYSDNDTTVTNNYYNYGDNDNNGGNNHSSSSNAITDAPGNAGDQSQQQSDNNYGNANQDSYDQGNDYGNDYGNAGYDSGDFGGGDYGGGGYDSGDFGGGDFGGGDFGGGDFGGGDY”, the “soluble on expression in E. coli” value is “not soluble”.

Turning to “MAHHHHHHSLRMTQAKTYKVSRDETQHGKDSEHHLIAGYNSSMRLWHNEEPSDTADKTPRSHEYETLGYVISGQVELTVDGQTLTLSAGDSYRVPKGAEHVFRVTETLTAVEVTTPATNKEG”, the “soluble on expression in E. coli” value is “soluble”.

As to “MGSDKIHHHHHHMAHHHGMRFPTPLIPATLIKRYKRFLADCRLEDGREITAHCANPGSMMGLAEPGMRVWLEPNDDPKKKLKYGWRLVEHTNGHFTGVDTSVPNRALKAALEAHEIAEFAAYSEVQAEVKYGQNSRIDFLLTDAKLPRCYVEVKSVTLSRQPGLAEFPDSVTARGTKHLRELAAMAEAGHRAVMLYLVQRTDCDRFALAADIDPAYAAEFETAHAKGVERLVIGTTITPEGVKIGDILPS”, the “soluble on expression in E. coli” value is listed as “not soluble”.

On to “MDCDIASYHVDSFDFLVSKGCQFAAQAVPAEKFRLKNGDAVTMKFTSAQLHKPTLDTGAKLTSDTLPLLPAECRQRGLTYAGNLKVGIDVHVNGSRLDIIEIILGKVPIMLRSEGCHLRGMSRKELVVAGEEPIEKGGYFIVNGSEKVIRLLIANRRNFPIAIIRKTFKEKGKLFSEFGVMMRSVKENHTAVMMTLHYLDTGTMQLALQFRREIFYVPLMYIVKALTDKNDAVISAGFKRGRNQDQFYSSCILNMLAQCQEEEILNQEAAIRAIGSRFRVAVSDRVAPWEDDLEAGRFIIRECVLIHLDSDEEKFHTLAYMTQKLIALVKGECAPETPDNPQFQEASVSGHILLLILRERMENIIGMVRRKLEYMSSRKDFILTSAAILKALGNHTGGEITRGMAYFLATGNLVTRVGLALQQESGFSVIAERINQLRFVSHFRAIHRGAFFMEMRTTDVRKLRPEAWGFICPVHTPDGAPCGLLNHVTASCRIVTDLSDNSNVPSLLAELGMYTHKTVALAPPGEELYPVLMNGRFLGYVPITKAASIERYLRCAKVAKDARIPYTSEIALVRRSTDIKNIQTQYPGIYILSDAGRLIRPVRNLAMDAVEHIGTFEQVYLSVVLDPEEAEPGVTMHQELHPSCLFSFAGNLIPFPDHNQSPRNVYQCQMGKQTMGTAVHAWHSRADNKMYRLQFPQQPMLKLEAYEKYEMDEYPLGTNACVAVISYTGYDMEDAMTINKASYQRGFAHGTVIKVERINLVTERERKTIFYRNPREEIKTVGPDGLPIPGRRYFLDEVYYVTFNMETGDFRTHKFHYAEPAYCGLVRIVEQGEGDSGAKHALIQWRIERNPIIGDKFASRHGQKGINSFLWPVESLPFSETGMVPDIIFNPHGFPSRMTIGMMIESMAGKAAATHGENYDASPFVFNEDNTAINHFGELLTKAGYNYYGNETFYSGVDGRQMEMQIFFGIVYYQRLRHMIADKFQVRATGPIDPITHQPVKGRKKGGGIRFGEMERDAIIAHGTSFVLQDRLLNCSDRDVAYACRRCGSLLSVLMSSRAGSHLLKKKRKDDEPLDYTETQRCRTCDKDDQVFLLQVPRVFRYLTAELAAMNVKIKLGIEHPSKVTGS”, for which the “soluble on expression in E. coli” value is “not soluble”.

Take “MADMKNKYDVKRIIPDELSESLDIFLKNYSETGLSDYNTYLFYGFILKSYKLPRENRYSIKLLVKELQNRGLKVTLIINIYYHALNCLALNDGLKIYGEDFLI”: the “soluble on expression in E. coli” value is recorded as “not soluble”.

Regarding “MAQKTFTVTADSGIHARPATTLVQAASKFDSDINLEFNGKTVNLKSIMGVMSLGIQKGATITISAEGSDEADALAALEDTMSKEGLGE”, the “soluble on expression in E. coli” value is “soluble”.

For the sequence “MKIVIIGSGLAGLSAGYRLCKSDEVIIFEKDPDIGGMSASYSIENEGKKYFIEKYYHHIFRSDSELLALIKELGLEKQMLWLKGKNAYFVDGKNYPMNTPVEILHFSPLSILDLAKLGMLVLRIKLIKDTAPYDRIKAKEWILDTAGKSVYENFFAPLMKSKFGDNAENVSAAWVIGRVKIRSDRGAEGEKLGYMRGGFNSLIEALAGEITANGGEIRTDREVTEIVIKANAVQGVKVNGDFIPCDAVISTAEPAVLDAITGGKLGDLHETLKSIRYQGTACALIGLDRSLMEDGNYWLNIKA”, the “soluble on expression in E. coli” value is given as “not soluble”.

As for “NLAHDTVFEVRNVTSRDRKKVRDISFSVCRGEILGFAGLVGSGRTELMNCLFGVDKRAGGEIRLNGKDISPRSPLDAVKKGMAYITESRRDNGFFPNFSIAQNIAISRSLKDGGYKGAMGLFHEVDEQRTAEAQRELLALKCHSVNQNITELSGGNQQKVLISKWLCCHPEVIIFDEPTRGIDVGAKAEIYKVMRQLADDGKVILMVSSELPEIITVCDRIAVFCEGRLTQILTNRDDMSEEEIMAWALPHE”, the “soluble on expression in E. coli” value was “not soluble”.

Take “APRTLYDKIWDDHVVHQSEDGTCLLYIDRHLVHEVTSPQAFEGLRMTGRKVRAPEKTIAVPDHNVPTTEGRDTKIDNEESRIQVEALDKNARDFGINYYPVSDIRQGIVHIVGPEQGWTLPGMTVVCGDSHTATHGAFGALAHGIGTSEVEHVLATQTLIQKKSKN”: the “soluble on expression in E. coli” value was “not soluble”.

For “MSPFDYLHFALLLVAPLAVLIGCGGKKKPPPPKSASKMGPPPPAPAPPTAPEATPAAPAPDAAAAAPAEGEKKDGDKKSEKKDGDKKEEEKKDEEKKDGDKKEDDKKDEKKDEDKKDEKKDADEKKDEEKKDDKKDEKKDEKKDEKKEKSKKSKKSSKSKKSKKSKREKKDEDKKEDDKKEDDKKDDKKEDDKKDDEKKDDDKKDDEKKE”, the “soluble on expression in E. coli” value is recorded as “not soluble”.

With “FYRNHYKITYKRRLSDLFREFYLTSSRTKWQLCITLGVALVMLVSRELGLPRPMWAGFAAMSVMQPFAEDLKQRVKHRLPGTIAGGLLFLLLCRVLPE”, the “soluble on expression in E. coli” value was “not soluble”.

In the case of “MGSDKIHHHHHHMAKYRIMTFDGGGTLGALSLQLLNRLARQNPKLISRTHVFSGNSIGSFTALALASGRSPRETLQYFEDEILPAFSISRPGGPVFNQQLPYSGFIKAVRNFFPADLQLIDLRKRIVVPSFKLYSQKLDRWTPVLFHNFPGSPYLNEKVSDVILRSSGAPATQRAYQNYVDGYVVATNPSTASIAFAVGKANVPLDQIAVLSIGTGEAPTRLRRDTRGWGMVSADNIRPENLKNLPPNWGVLLDRSPNEPLLPFLQMIAGGNGYYESMVSANLLGDRFFRLDPRIPNFSKTDPAVVPAVIEIANKTNLQPANQFIEKNWGSK”, the “soluble on expression in E. coli” value is recorded as “not soluble”.

The values are drawn from the DeepSol protein solubility set.
